Results taken from article PMC11933560.

Molecular target: mCherry-LHBs (HBV large envelope protein with mCherry at the N-terminus) (Hepatitis B virus) (UniProt P03138)
Assay: FRET or BRET

mCherry-LHBs (HBV large envelope protein with mCherry at the N-terminus) (from UniProt P03138 1-389) (natural protein)
FRET efficiency: 35%
